# Test results reported in the domain aggregation screens of Martell et al. (2025).
# Experiment: soluble fraction after stress (log2 fold change); higher = more stays soluble; pooled small domains, quantitative proteomics
# Details: stress: 50 degC
# In short: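 The stress applied to every library was 50°C. These custom libraries of small protein domains were pooled and measured at high throughput with quantitative proteomics as the read-out. Aggregation propensity is expressed as the base-two logarithm of the fold change in how much of each protein remains soluble. The higher the value, the more of that protein stays in solution.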
row,Sequence,soluble fraction (log2)
1,HMRPDDPYLVIGASREMGDEELKRHYRRLVAETHPDRGIARGLPAEAIAIATRRLAAINAAWDAIERERGL,0.035
2,HMRPDSFEAGEAEAGSRLDRLLAARLGIPRNQVQQWIGGGRVTVDAEPVRASLVVRAGMRIAWDPPPPP,-0.0768
3,HMRPEKLVLKALRGAHGPLSAEEVAGRIEADGGAGLDVARVEHVLGQLERSGTVAALGGGKYLALR,0.281
4,HMRPHDDHLREQLLGIATETIARTGVEGLSLRTLATDAGTSTSAVYQLFGSRAALLDAVYLRVLE,-1.26
5,HMRPLISQTLRIDRGEGDIAGPLGVLAKEYPHLSMGSYPFQKDGIYGAHVVIRGSDPGMVEAAMDKLKAAF,0.018
6,HMRPLTPLEKLTPDADGKYYHIVQSGETLSWIAKLYETTAEKLQAWNNLFSSDIFPNQKLLLQVTPP,0.0722
7,HMRPPLEWGTHGEITTRTVASGYVRASARVRLWDGELQRMTATASTASDARASLQHRIAERLRFSEL,-1.46
8,HMRPPLRAAIIDHLARDWHTVAELARLLPASGAHVSRLVVELRAVGAVDERISHPDWPGNRPTEYRLRRA,-3.58
9,HMRPTHYSGPSVIAMINNRVWFSDGSRLAPGEHHDDLEVVGLSPPWSAKVRWQGVEFDVGLFE,-1.45
10,HMRQGHLDLLRQIHALPPSTREVVYLRAFGGLSFREIGDVLGRTETWARVTFYRGKEALRKG,0.0194
11,HMRQHHMIISTKLGTPKEELAKLVSGFEDQGLRVSVITGTDYTVIGLVGDTTHLDEKRIRANPYVDNVQRV,-0.0184
12,HMRQIMIIVLKSTATKEDSLLFKNKLEQEYGVKVNEWTGVESTVLGLIGDTTKIDIDYISAQDIVESVKRV,0.252
13,HMRQKTTFFATESFELPNGEKVEEGQIFRLNDGAFNIAEQQGITRFLTSEANYGRMIAANAEVEKAKLDA,0.268
14,HMRQLISIYNNTIGADEIDQMRNILSNSGYKEGVDFAVQTADKKSVILVRRDLAGMIQEQLSGEGLPS,0.0201
15,HMRQNPESFLNHKVKKNESLESLTKKYELTENEIIFYNPLIQKIGLKKRMILKIPIYNNQNLVTKSVD,0.256
16,HMRQPRGQRVTVREASSLLPFLFAHLTDRSRSAVKSLLRHGQIWVNGRVTTHFDMPLRPGDTVLISHERG,-0.347
17,HMRQSQEVSGGERYRRLTAYLDTHPFITRKEYSGITGLLKNKALNDLNLLVNKGYLEAMGRGSHKVYVRPM,-0.424
18,HMRQSSLRTRELLIDAARQLFARFGVEKTTMNDIAEASKRGRRTVYMYFNSKSDVFYAVVGRE,-0.212
19,HMRQVFPNPSSSQIKLASSRIGQAFSILDQQGRVVLSGKVSEEAVIALENLAKGIYVLKIGSWSETILK,-0.903
20,HMRRATLERLANNTAEKAIRYKRSLALEPMNPQERRIIHAALQEVEGVSTHSVGTEPNRKVIVVPDGV,-0.0677
21,HMRRFEFSDGSSNKFWQITRDGTSLTVTFGKIGTAGQTQLKELATEAAAIAEHDKLVKEKTKKGYAEVG,-0.206
22,HMRRGFGYVRKLPSGRWQASFVGPDLARHSAPHTFETKGDAEGWLGRRQADVVAGEWRPPVP,0.205
23,HMRRISLEDWQLIESLIRRDWSPEQISLWLKKYKKIRVSHEWIYQYILKDKSKAGDLHTHLRSR,-0.174
24,HMRRKNQVQSSYQKRENGTYTVRFFLSDDMGSIMDLQLMATREDMARALRERFLKDPEKIYGQIMQMLLR,-0.255
25,HMRRLGTTEIAGILRREISQGILIAKERLPSERSLADTYGVARGTVRQALNLLAREGLVQIRRSSGAYVTF,-0.33

row,Sequence,soluble fraction (log2)
1,HMRRMAYLVGQRGLAMGDFISGTGQVRIGDTVWRAEAVEGELVRTGDTVVVEGAKMTTAIVRRVM,-0.351
2,HMRRRKPLVSYEYGTRVYAPSEGEPRYRVVATDADGQRVFAKFSSEEAARHRAREIEGRLATS,-0.00468
3,HMRRSSQQLTLTEVSTIKEMVTSEEYRHVPTGTLALLAQRLRKVFASSSTWYRLVRIYKWRRPRGRIH,0.549
4,HMRRSVYQANVLDAIKHLVDQNELATTKAIAEYIGDDYQGNVSRAIRELLADRKIKKLPKVGVLQPYEA,-0.285
5,HMRRVEDVRTALEHFAAARNTTPMAMTLDQRREAMRELAASGLLNLRRALSEVAQTLGVARSTVYTYLP,-0.84
6,HMRSAKEYKAIREEIYRFIGAYITKHVYAPSNKEIAEAVGISGTTVHRHLIDMIDEGILETD,-2.56
7,HMRSFGTLRRLPSGRYQASYAGPDLRRHAAPTTFETKLDAEGWLRDEHRMIERDEWTAPAARSQLK,0.214
8,HMRSFRIGGLVEQGSIARDGQSLTVRFAVTDLAHKIPVTYTGLLPDLFKEGKGVVAEGKLGPDGVFHASQV,-0.0153
9,HMRSPIWKSITATLTAEIAGGQYRAGDKLPTEAELSQRFGVNRHTLRRALAEMAGAGLVVARRGAGVFVQG,-1.94
10,HMRSPLYVQIKQHILGDIRKGVWKPGEKLPTELDLAERFGVSVGTVRRAMGGLEDEGIISRREGSGTFVRT,0.0686
11,HMRSSAATMFGRIALKNKLVDEATLKKVMSELPAGADLGAVLVKQGLISEQHAEAIQKKITAHMKSAP,0.273
12,HMRSSALDEIPGIGKQRKKNLLVHFTSVAKIKEASLDEIAAVPGMNRKAALVVVEFFQNQERE,-1.79
13,HMRSSNEAVSQRRDKILDYISATGRTSTEIVAKEFGVSVMTARRDLLYLMEKRLISKSSSGLFKVDNN,-2.42
14,HMRTIGDSVYEKIKYDIVHLTLKPGEKLSEASLAEKYGISKAPIRVALRKLQEEGLIVIRPQSGSIVSP,-0.568
15,HMRTMRHLSVPRQETQQILSQLKAEFALPQGARVQPDPSDSKRTLIPVKEGAESELLSRYPVVHAEP,0.0847
16,HMRTNNEITSYKLKSGKKRWKFQTYLGLDDKGQKVSVTRQGFRTYNEAISEYNKLRAQGTQGYQ,-0.355
17,HMRTPTGVQAYLSSGLIKGIGEKTAAAIVDKFGTDALSVIETDPERLLEIPGITPNKLREILESYNQH,0.141
18,HMRTVAERYGLTAGQWRVLELLTQGKTNRQIAEMLDVTEGTVKIHVSAIFKAMKVTNRTQALLLAKKH,-0.558
19,HMRTYDPQAVELNNKALELINQGRLDSALLVYDQSIKTDKTYYFPHIGKSIIYMRKKDWNKAFEETQQAIK,0.18
20,HMRVDLATEVHSVLRRMMSRPPTLQEIRADLDGEEPGRVHEALDALRAAFRGGRGPKNPYESLKRSLRRG,0.0134
21,HMRVDLVQRLARHGLSPRQSAVAGGVLRGLDNGEISRQLYIAEQTVKDHLHEIYHRLGVHTRTELLIKVLG,-1.6
22,HMRVGISRNSGAAGIAVWLTQKLGRPVAKTEEIVHILKNWVDDQYEAGRVTNIGDGELWSVYKQMEAEE,-0.359
23,HMRVTEIDYGAFMKMIEEKNIGEVKVEDYEIVFTDKDNKNIYKTGIMDDPDLTQRLYNSGAVFA,0.0247
24,HMRWGDPLTVKVPSFIGQTKDDIAKQHYPFRIEWHGEGAKIGSQLPEVDSVIKQDGTIHLYLV,-0.104
25,HMRYFDDEELNNKFLEFLSMRKKIRKPVRTDRALKALLKKLHELSGGDVGLMKQIIDQSLDKEWLGLFEL,-0.422

row,Sequence,soluble fraction (log2)
1,HMRYNPETTAGRRGLIIKMLDEYGQVNVNELSRYFNVSEVTVRNDLAYLERKNLLIRARGGAIKTE,-0.941
2,HMRYWVKSETDFLIENRGKYSYQEFADMLGRSYAVVYDKMHQLKIDYTKEELEIFDEKHKAQMREKQQR,-1.52
3,HMSAAPVGPWALSEFLDAVEKDSVERVTFDDAGKALVAVDADGGRHRVEILPSEGPEILAALRKHSVQFA,0.0953
4,HMSADEVSQQLTSEQTKSKSYQALLQAYAAYQQKSFDDAALELQNVQQDVLSDSQKTIYNTISQAVNS,0.185
5,HMSADISIGYNIPKGSVTVSAGGRTLQEGIDYDINYDLGTIKITNQAILNAGLPVQVNFENNAS,0.149
6,HMSADLVYLRKRLQDAIAQLPENMRTAYTLFQIANRSIREISELTGASESLVKVRIHRAKGKLQKQLEDLK,-1.33
7,HMSAEDYLERIHELIESKGTAHVADIAQSLGVGKPSVTSMVQKLADEGYLNYEKYRSLTLTDSGRSIA,0.105
8,HMSAEDYMEMIYRLSQENGFTRVNDLASALNVQPPSVTRMIQKLAELNLIKYEKYGVIMLQPYGIEVGRSL,-1.91
9,HMSAEGPALADWVVRDAHSIGAKITNSVAQLLIDRVGHNQQLLHNELQKLALVQTDISAELVKTMSHY,0.0302
10,HMSAETRSWTDAQGNQTQAVLRGFDGGDVLLQNAAGKTLRVPVKNLSEDDQRYVVLNISTLID,0.0786
11,HMSAITLDQARAIALDHAGISEGDATFVKEQTGTSSYEIEFYSGSNEYDYEIDKATGAILNVDR,0.0269
12,HMSALAEELIKKNQAMILTIKPRDTIWGIANRFQSPPSEKFINQIIELNQVDPYRLRIGQDLLIPLN,-0.584
13,HMSALTDQQQRVLELVASGLVYKEVAAALSISEPTVKYHMGNILTRLHVKNRAQAIAAARQQGLL,-1.21
14,HMSAMKYTSEVFQRLSRGQFISSNSIDAETRAIYSDIEENQQEYEDYFSKIDFLLSSGDGFYYFSRK,-2.4
15,HMSAMSPTEVGERLRLAREAVRMTQKQAADAISVARTTLVAIEQGQRRVRIDELQQLAKTYGVSVNAILR,-0.757
16,HMSAPAKKPKIKVDLSKVHAGTIVRHKGYGLGQVKGIDGAIIVVTFDGVDKKFQFPGGFENGFLFLTED,-0.0311
17,HMSAPLKELGNDPESGKPIVVKDGRFGAYVTDGETNATLRKTDAVESLTPERAAELLAEKRAKG,0.168
18,HMSAPTAFSERELELLAGMRRGASNKAMAEQLFISVNTVKYHRANLMRKLGARDRNEALEVAARLG,-0.0071
19,HMSAQDLIVKTDATQVEARVLEISPEQIRYKRFSNPDGPTYVLPVDAVDYIRYANGETDSFR,-0.0039
20,HMSASAIYVRPKDVKEPEEVADYLSGVLELDREKLYKKITDKSQWIALIERKVDNDIAFDIRNKKFKGIEI,-0.0243
21,HMSASIAEGTVIMLENTTNIRSGMSEDSSKVGTAYAGEKVTVVMSYAEGWTKVKWNGETGYIKTALLQL,-0.212
22,HMSASNSIDFANRMIYNKNQVAVFNFGKHMGRPVLEVLKSDPSYYDWMMKGDFPMDTKRKLTEIKLQGF,-0.755
23,HMSATPQRMTIIDALDSSGKNLSAYELLDLLNDKGQLFNISTIYRVLDFWIEMGIVHKINSSNTYL,0.125
24,HMSATQDAAIAVRIRDILSELDGYEDVTVTVTSGIVTMRGTTLDSEKIARLNDLTGRVEGVVAIENSVTET,-0.367
25,HMSAVIGTATVTTSSGSLNLRESASLYSRVIRTIPRGATVDVLSRDTSWSRVRYAGSEGYVLNQYLTFQT,-0.0809
